Results reported in patent publication US20120014936A1 (SHIRE HUMAN GENETIC THERAPIES, published 2012).

Target: the molecule itself
Assay: SEC-HPLC with light scattering, self-association (homodimer)

B1: recombinant human heparan N-sulfatase (rhHNS), mature form (enzyme)
chain: RPRNALLLLADDGGFESGAYNNSAIATPHLDALARRSLLFRNAFTSVSSCSPSRASLLTGLPQHQNGMYGLHQDVHHFNSFDKVRSLPLLLSQAGVRTGIIGKKHVGPETVYPFDFAYTEENGSVLQVGRNITRIKLLVRKFLQTQDDRPFFLYVAFHDPHRCGHSQPQYGTFCEKFGNGESGMGRIPDWTPQAYDPLDVLVPYFVPNTPAARADLAAQYTTVGRMDQGVGLVLQELRDAGVLNDTLVIFTSDNGIPFPSGRTNLYWPGTAEPLLVSSPEHPKRWGQVSEAYVSLLDLTPTILDWFSIPYPSYAIFGSKTIHLTGRSLLPALEAEPLWATVFGSQSHHEVTMSYPMRSVQHRHFRLVHNLNFKMPFPIDQDFYVSPTFQDLLNRTTAGQPTGWYKDLRHYYYRARWELYDRSRDPHETQNLATDPRFAQLLEMLRDQLAKWQWETHDPWVCAPDGVLEEKLSPQCQPLHNEL
notes: In the immunohistochemistry it was detected in fixed monkey tissue after intrathecal dosing; also called sulfamidase; human HNS
  binding result: binds
